Target: SARS-CoV-2 S protein receptor-binding domain (R319-F541) (SARS-CoV-2, UniProt P0DTC2)
Assay: ELISA
Settings: both partners purified

B1: sdAb12 (VHH)
VHH: EVQLVESGGGLVQPGGSLRLSCAASGNTFPARTMSWVRQAPGKGLELVASIGRGEITYYADSVKGRFTISRDNSKNTLYLQMNSLRAEDTAVYYCAAPAHGSWMSRRPHIYWGQGTLVTVSS
binding result: binds

B2: sdAb42 (VHH)
VHH: EVQLVESGGGLVQPGGSLRLSCAASGNTSTRHPMSWVRQAPGKGLELVASIGRGEITYYADSVKGRFTISRDNSKNTLYLQMNSLRAEDTAVYYCAVDAVFGGRHSHWGQGTLVTVSS
binding result: binds

B3: sdAb39 (VHH)
VHH: EVQLVESGGGLVQPGGSLRLSCAASGNTSTRHPMSWVRQAPGKGLELVASIGRGEITYYADSVKGRFTISRDNSKNTLYLQMNSLRAEDTAVYYCAAFVDFLSRHNSRRPYPHGYWGQGTLVTVSS
EC50: 4 nM

B4: sdAb10 (VHH)
VHH: EVQLVESGGGLVQPGGSLRLSCAASGNTFPARTMSWVRQAPGKGLELVASIGPGRSTIYADSVKGRFTISRDNSKNTLYLQMNSLRAEDTAVYYCAVAYTSGLALRGSFSYWGQGTLVTVSS
binding result: binds

B5: sdAb38 (VHH)
VHH: EVQLVESGGGLVQPGGSLRLSCAASGNTSTRHPMSWVRQAPGKGLELVASIGRGEITYYADSVKGRFTISRDNSKNTLYLQMNSLRAEDTAVYYCAVCLRSVFVNCHNFAYWGQGTLVTVSS
binding result: binds

Reference: publication PMC10865538 (BMC Infectious Diseases, 2024)
